According to publication PMC9054930 (RSC Advances, 2020):

Biological target: alpha fetal protein (AFP) (Homo sapiens, UniProt P02771)
Assay: ELISA

Sequence of alpha fetal protein (AFP) (P02771 19-609): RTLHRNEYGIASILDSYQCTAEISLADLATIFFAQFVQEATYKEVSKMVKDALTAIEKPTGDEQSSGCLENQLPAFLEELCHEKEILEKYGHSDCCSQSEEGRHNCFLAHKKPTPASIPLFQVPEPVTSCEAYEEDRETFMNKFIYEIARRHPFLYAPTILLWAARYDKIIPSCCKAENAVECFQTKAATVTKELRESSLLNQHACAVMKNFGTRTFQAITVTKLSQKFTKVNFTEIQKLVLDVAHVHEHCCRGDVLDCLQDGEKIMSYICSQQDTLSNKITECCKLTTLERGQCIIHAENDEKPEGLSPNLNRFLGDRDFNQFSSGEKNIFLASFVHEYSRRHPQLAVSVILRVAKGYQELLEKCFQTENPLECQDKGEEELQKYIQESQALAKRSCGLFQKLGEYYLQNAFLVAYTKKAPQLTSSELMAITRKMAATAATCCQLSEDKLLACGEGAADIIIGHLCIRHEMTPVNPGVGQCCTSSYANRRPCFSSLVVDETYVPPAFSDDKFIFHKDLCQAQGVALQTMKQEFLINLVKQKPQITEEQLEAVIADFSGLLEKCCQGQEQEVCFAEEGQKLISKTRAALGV

| Binder | binding result |
| --- | --- |
| anti-AFP nanobody A1, phage-displayed (VHH) VHH: QVQLVESGGGLVQSGGSLRLSCAASMRGFRIVAGGWYRQSPGKQRELVADINYQDDTNYGDFVKGRFTISRDSAKNTLYLQMNSLKPEDTAVYYCSALSVIGNEFWGQGTQVTVSS | binds |
| anti-AFP nanobody A2, phage-displayed (VHH) VHH: QVQLVESGGGLVQAGGSLGLSCAASGLGFSIVAGGWFRQAPGKERELVAAIGTGTGDINYGDSVKGRFTISSDSAKNTVYLQMNSLKPEDTAVYFCATTERYYTGSYDSRARPQSYGYWGQGTQVTVSS | binds |
